For two molecules, % Inhibition of Specific Binding results are on record in patent US12427210B2, “Compounds comprising a fibroblast activation protein ligand and use thereof” (priority 2019, dated 2025).

What all share (settings): remark: other sources report otherwise
One assay deals with T1, A2A (h) (human), P29274.
T1 chain: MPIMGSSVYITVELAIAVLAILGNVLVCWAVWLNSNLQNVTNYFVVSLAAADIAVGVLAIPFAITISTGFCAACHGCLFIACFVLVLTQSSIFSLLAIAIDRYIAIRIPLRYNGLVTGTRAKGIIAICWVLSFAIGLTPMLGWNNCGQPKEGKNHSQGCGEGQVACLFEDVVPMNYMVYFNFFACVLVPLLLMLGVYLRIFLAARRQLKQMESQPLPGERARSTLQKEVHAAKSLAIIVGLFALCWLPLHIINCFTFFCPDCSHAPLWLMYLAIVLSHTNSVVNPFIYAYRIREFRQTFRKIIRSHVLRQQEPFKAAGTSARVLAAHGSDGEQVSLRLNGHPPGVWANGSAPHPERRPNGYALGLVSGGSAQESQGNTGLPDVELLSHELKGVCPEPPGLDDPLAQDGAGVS
Kind of assay: radioligand displacement, compound at 10 µM. In general terms: In a radioligand displacement assay an active substance lowers the binding of a labelled ligand.

Another assay deals with T2, D2S (h) (human), P14416.
T2 chain: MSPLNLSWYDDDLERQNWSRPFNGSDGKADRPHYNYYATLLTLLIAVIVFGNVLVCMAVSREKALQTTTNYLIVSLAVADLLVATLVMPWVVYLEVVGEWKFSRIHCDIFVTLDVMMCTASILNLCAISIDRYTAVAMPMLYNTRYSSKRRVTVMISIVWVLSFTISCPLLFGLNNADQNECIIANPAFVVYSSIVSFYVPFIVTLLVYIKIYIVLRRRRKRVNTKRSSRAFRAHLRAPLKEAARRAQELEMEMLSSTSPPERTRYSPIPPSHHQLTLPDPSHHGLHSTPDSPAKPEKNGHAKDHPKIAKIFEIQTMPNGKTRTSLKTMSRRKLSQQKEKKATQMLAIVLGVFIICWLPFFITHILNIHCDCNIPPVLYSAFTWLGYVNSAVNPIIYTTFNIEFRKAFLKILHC
The assay can be described thus: radioligand displacement, compound at 10 µM.

The target of the next assay is H2 (h) (human), P25021. The assay can be described thus: radioligand displacement, compound at 10 µM.
Sequence of H2 (h) (human), P25021 (P25021 whole entry): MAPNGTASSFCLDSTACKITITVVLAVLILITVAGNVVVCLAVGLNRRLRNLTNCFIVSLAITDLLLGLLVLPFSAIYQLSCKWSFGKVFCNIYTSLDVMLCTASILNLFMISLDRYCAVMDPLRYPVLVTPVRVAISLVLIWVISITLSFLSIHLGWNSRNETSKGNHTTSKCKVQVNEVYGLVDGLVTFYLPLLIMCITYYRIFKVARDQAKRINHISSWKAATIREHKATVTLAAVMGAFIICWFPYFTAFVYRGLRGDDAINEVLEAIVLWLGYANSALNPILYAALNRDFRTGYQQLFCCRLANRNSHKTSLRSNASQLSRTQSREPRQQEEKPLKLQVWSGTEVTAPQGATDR
Assay [1] addresses T3, dopamine transporter (h) (human), Q01959.
T3 chain: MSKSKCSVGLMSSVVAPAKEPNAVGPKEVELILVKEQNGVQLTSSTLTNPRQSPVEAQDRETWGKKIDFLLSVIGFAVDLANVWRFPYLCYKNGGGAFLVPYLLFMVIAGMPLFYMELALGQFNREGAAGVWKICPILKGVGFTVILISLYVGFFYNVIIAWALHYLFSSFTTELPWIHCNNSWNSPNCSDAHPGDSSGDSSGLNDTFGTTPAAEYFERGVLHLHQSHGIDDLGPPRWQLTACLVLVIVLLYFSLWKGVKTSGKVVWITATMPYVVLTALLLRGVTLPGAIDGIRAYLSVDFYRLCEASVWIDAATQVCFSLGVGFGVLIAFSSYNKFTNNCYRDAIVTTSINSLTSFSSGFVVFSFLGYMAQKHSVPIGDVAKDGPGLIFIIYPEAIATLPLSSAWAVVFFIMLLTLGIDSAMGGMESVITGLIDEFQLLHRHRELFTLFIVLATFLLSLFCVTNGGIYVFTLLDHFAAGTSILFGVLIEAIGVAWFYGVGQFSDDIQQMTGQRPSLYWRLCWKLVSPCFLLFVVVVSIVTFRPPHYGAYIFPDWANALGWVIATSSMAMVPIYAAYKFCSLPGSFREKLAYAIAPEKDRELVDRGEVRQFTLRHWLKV
The assay can be described thus: radioligand displacement, compound at 10 µM.

For assay [2], the target named is T4, Potassium Channel hERG (human) (human), Q12809.
T4 chain: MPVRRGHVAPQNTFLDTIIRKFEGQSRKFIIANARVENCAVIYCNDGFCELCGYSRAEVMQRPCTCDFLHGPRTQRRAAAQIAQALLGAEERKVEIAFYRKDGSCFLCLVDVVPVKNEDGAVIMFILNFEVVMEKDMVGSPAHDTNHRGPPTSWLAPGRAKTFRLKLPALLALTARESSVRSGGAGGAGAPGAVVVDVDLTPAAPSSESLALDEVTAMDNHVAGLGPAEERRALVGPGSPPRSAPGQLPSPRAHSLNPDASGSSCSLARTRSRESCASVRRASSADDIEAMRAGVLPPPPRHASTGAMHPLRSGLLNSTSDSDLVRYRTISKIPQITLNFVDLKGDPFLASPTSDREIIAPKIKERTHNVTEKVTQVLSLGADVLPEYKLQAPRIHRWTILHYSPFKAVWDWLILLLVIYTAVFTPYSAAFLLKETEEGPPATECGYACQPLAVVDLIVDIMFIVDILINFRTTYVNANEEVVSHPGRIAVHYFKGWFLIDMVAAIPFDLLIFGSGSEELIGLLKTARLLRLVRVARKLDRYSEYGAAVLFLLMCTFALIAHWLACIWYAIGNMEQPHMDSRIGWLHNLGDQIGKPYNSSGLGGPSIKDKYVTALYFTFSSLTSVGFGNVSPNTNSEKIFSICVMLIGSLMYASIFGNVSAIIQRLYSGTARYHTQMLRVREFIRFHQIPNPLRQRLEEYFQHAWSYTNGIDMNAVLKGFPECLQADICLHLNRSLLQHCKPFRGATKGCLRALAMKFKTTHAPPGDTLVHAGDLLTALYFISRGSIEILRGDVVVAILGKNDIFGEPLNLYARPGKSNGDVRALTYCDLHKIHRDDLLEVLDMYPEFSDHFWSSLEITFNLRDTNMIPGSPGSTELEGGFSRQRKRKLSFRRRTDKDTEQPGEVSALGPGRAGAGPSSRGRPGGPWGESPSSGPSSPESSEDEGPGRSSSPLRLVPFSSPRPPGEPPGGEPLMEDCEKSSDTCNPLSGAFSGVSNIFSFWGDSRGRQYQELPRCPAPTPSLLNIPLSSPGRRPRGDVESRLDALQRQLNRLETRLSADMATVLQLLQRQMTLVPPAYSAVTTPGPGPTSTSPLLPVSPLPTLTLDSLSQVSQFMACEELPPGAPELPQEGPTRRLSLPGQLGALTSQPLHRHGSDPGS
Kind of assay: displacement of [3H] Dofetilide, compound at 10 µM.

B1: Hex-[Cys(tMeBn(DOTA-AET))-Pro-Pro-Thr-Gln-Phe-Cys]-OH (3BP-3554) (peptide)
peptide: CPPTQFC
modifications: here or on the partner: N-terminal hexanoyl (Hex); Cys1 and Cys7 cyclised through tMeBn carrying DOTA-AET; free C-terminal acid (-OH)
Take B1: the % Inhibition of Specific Binding with A2A (h) (human), P29274 was -16%; with D2S (h) (human), P14416 it was -7%; with H2 (h) (human), P25021, -16%; in assay [1], 7%; in assay [2], 6%.

B2: Hex-[Cys(tMeBn(DOTA-PP))-Pro-Pro-Thr-Gln-Phe-Cys]-Asp-NH2 (3BP-3407) (peptide)
peptide: CPPTQFCD
modifications: here or on the partner: N-terminal hexanoyl (Hex); Cys1 and Cys7 cyclised through tMeBn carrying DOTA-PP; C-terminal amide
For B2, the % Inhibition of Specific Binding with A2A (h) (human), P29274 is -4%; with D2S (h) (human), P14416, 15%; with H2 (h) (human), P25021, -5%; in assay [1], 12%; in assay [2], 2%.
